Literature values in publication PMC8305778.

Target: FcεRIα (Homo sapiens) (UniProt P12319)
Assay: given as Ka

Sequence of UniProt P12319 (P12319 26-257): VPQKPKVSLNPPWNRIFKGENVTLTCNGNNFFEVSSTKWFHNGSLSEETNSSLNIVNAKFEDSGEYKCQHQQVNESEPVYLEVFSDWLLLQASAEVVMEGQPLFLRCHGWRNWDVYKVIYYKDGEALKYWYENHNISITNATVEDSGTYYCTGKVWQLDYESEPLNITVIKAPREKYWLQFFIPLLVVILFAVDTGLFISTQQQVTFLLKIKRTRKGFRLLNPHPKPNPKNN

- Kd: 100 pM
Substance: IgE Fc (from UniProt P01854)
